Assay results: patent US20250320281A1

Assays:
Test in all cases: cell-based or functional assay
[1] = biological target: HIV-1 MGRM-D-001 envelope glycoprotein (Env) on pseudovirus (HIV-1)
[2] = biological target: HIV-1 JRFL envelope glycoprotein (Env) on pseudovirus (HIV-1)
[3] = biological target: HIV-1 MGRM-C-027 envelope glycoprotein (Env) on pseudovirus (HIV-1)
[4] = biological target: HIV-1 APV6 envelope glycoprotein (Env) on pseudovirus (HIV-1)
[5] = biological target: HIV-1 MGRM-D-018 envelope glycoprotein (Env) on pseudovirus (HIV-1)
[6] = biological target: HIV-1 92BR020 Env on pseudotyped virus (HIV-1 isolate 92BR020)
[7] = biological target: HIV-1 ADA Env (HIV-1 ADA)
[8] = biological target: HIV-1 Env of pseudovirus 94UG103 (subtype A) (HIV-1)
[9] = biological target: HIV-1 Env of isolate MG RM-D-020 (clade D), on pseudovirus (HIV-1)
[10] = biological target: HIV-1 Env of pseudovirus MGRM-A-003 (subtype A) (HIV-1)
[11] = biological target: HIV-1 Env of pseudovirus MGRM-A-005 (subtype A) (HIV-1)
[12] = biological target: HIV-1 Env of pseudovirus 92UG031 (subtype A) (HIV-1)
[13] = biological target: HIV-1 Env of pseudovirus 92WR020 (subtype A) (HIV-1)
[14] = biological target: HIV-1 Env of isolate MG RM-D-005 (clade D), on pseudovirus (HIV-1)
[15] = biological target: HIV-1 Env of pseudovirus 92WR021 (subtype A) (HIV-1)
[16] = biological target: HIV-1 Env of isolate MG RM-D-019 (clade D), on pseudovirus (HIV-1)
[17] = biological target: HIV-1 Env of isolate MGRM-Chronic-B-010 (HIV-1)
[18] = biological target: HIV-1 Env of isolate MGRM-Chronic-B-012 (HIV-1)
[19] = biological target: HIV-1 Env of pseudovirus 92RW008 (subtype A) (HIV-1)
[20] = biological target: HIV-1 Env of isolate MGRM-F1-020 (clade F pseudovirus) (HIV-1)
[21] = biological target: HIV-1 Env of pseudovirus 92UG037 (subtype A) (HIV-1)
[22] = biological target: HIV-1 Env of isolate MG RM-D-004 (clade D), on pseudovirus (HIV-1)
[23] = biological target: HIV-1 Env of isolate APV17 (HIV-1)
[24] = biological target: HIV-1 Env of isolate MG RM-D-016 (clade D), on pseudovirus (HIV-1)
[25] = biological target: HIV-1 Env of isolate MG RM-D-014 (clade D), on pseudovirus (HIV-1)
[26] = biological target: HIV-1 Env of pseudovirus MGRM-A-004 (subtype A) (HIV-1)
[27] = biological target: HIV-1 Env of isolate MG RM-D-013 (clade D), on pseudovirus (HIV-1)
[28] = biological target: HIV-1 Env of pseudovirus 92WR026 (subtype A) (HIV-1)
[29] = biological target: HIV-1 Env of pseudovirus MGRM-A-009 (subtype A) (HIV-1)
[30] = biological target: HIV-1 Env of isolate MGRM-Chronic-B-002 (HIV-1)
[31] = biological target: HIV-1 Env of isolate MGRM-Chronic-B-017 (HIV-1)
[32] = biological target: HIV-1 Env of isolate MGRM-F1-004 (clade F), on pseudovirus (HIV-1)
[33] = biological target: HIV-1 Env of isolate MGRM-C-027 (clade C pseudovirus) (HIV-1)
[34] = biological target: HIV-1 Env of isolate MGRM-Chronic-B-004 (HIV-1)
[35] = biological target: HIV-1 Env of pseudovirus 93WR029 (subtype A) (HIV-1)
[36] = biological target: HIV-1 Env of isolate MG RM-D-008 (clade D), on pseudovirus (HIV-1)
[37] = biological target: HIV-1 Env of isolate MGRM-F1-013 (clade F), on pseudovirus (HIV-1)
[38] = biological target: HIV-1 Env of isolate MG RM-D-026 (clade D), on pseudovirus (HIV-1)
[39] = biological target: HIV-1 Env of isolate MGRM-Chronic-B-008 (HIV-1)

1443_C16 (PG16) (TCN-116) (antibody), sequence (VH): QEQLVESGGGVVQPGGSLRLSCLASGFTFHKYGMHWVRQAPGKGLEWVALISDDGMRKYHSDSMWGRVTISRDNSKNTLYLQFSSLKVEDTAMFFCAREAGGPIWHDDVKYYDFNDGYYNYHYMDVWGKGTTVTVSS
1443_C16 (PG16) (TCN-116) (antibody), sequence (VL): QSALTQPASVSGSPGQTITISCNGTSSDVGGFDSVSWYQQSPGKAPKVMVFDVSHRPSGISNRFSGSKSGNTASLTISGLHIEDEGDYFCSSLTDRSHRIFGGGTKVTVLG

Substance: 5141_B17 (PGT-126) (antibody)
- IC50, pseudovirus neutralization [1]: 0.0639 µg/mL
- IC80 (pseudovirus neutralization) [1]: 0.333 µg/mL
- IC90 (pseudovirus neutralization) [1]: 0.832 µg/mL
- IC95 (pseudovirus neutralization) [1]: 1.8 µg/mL
- IC50, pseudovirus neutralization [2]: 0.014 µg/mL
- IC80 (pseudovirus neutralization) [2]: 0.0454 µg/mL
- IC90 (pseudovirus neutralization) [2]: 0.09 µg/mL
- IC95 (pseudovirus neutralization) [2]: 0.169 µg/mL
- IC50, pseudovirus neutralization [3]: 1.14 µg/mL
- IC80 (pseudovirus neutralization) [3]: > 10 µg/mL
- IC90 (pseudovirus neutralization) [3]: > 10 µg/mL
- IC95 (pseudovirus neutralization) [3]: > 10 µg/mL
- IC50, pseudovirus neutralization [4]: 0.0249 µg/mL
- IC80 (pseudovirus neutralization) [4]: 0.0681 µg/mL
- IC90 (pseudovirus neutralization) [4]: 0.123 µg/mL
- IC95 (pseudovirus neutralization) [4]: 0.213 µg/mL
- IC50, pseudovirus neutralization [5]: 0.0093 µg/mL
- IC80 (pseudovirus neutralization) [5]: 0.0391 µg/mL
- IC90 (pseudovirus neutralization) [5]: 0.0918 µg/mL
- IC95 (pseudovirus neutralization) [5]: 0.205 µg/mL

Substance: 1443_C16 (PG16) (TCN-116) (antibody)
- Neutralizing Antibody Assay: IC50; Virus/Ab Incubation 1 hour [6]: > 50 µg/mL
- Neutralizing Antibody Assay: IC50; Virus/Ab Incubation 18 hour [6]: > 50 µg/mL
- IC50 (ug/ml), pseudovirus neutralization, TZM-bl assay [7]: 0.004 µg/mL

Substance: 1495_C14 (PGC14) (antibody)
- Neutralizing Antibody Assay: IC50; Virus/Ab Incubation 1 hour [6]: 1.17 µg/mL
- Neutralizing Antibody Assay: IC50; Virus/Ab Incubation 18 hour [6]: 0.244 µg/mL

Substance: PGV04 (antibody)
- IC50, pseudovirus neutralization [8]: 0.202 µg/mL
- IC50 (µg/mL), pseudovirus neutralization [9]: 0.097 µg/mL
- IC50, pseudovirus neutralization [10]: 0.128 µg/mL
- IC50, pseudovirus neutralization [11]: 0.134 µg/mL
- IC50, pseudovirus neutralization [12]: 4.46 µg/mL
- IC50, pseudovirus neutralization [13]: 0.055 µg/mL
- IC50 (µg/mL), pseudovirus neutralization [14]: > 50 µg/mL
- IC50, pseudovirus neutralization [15]: 0.038 µg/mL
- IC50 (µg/mL), pseudovirus neutralization [16]: 0.35 µg/mL
- IC50 (µg/mL), pseudovirus neutralization [17]: 0.744 µg/mL
- IC50 (µg/mL), pseudovirus neutralization [18]: > 50 µg/mL
- IC50, pseudovirus neutralization [19]: 0.014 µg/mL
- IC50 (µg/mL), pseudovirus neutralization [20]: 5.99 µg/mL
- IC50, pseudovirus neutralization [21]: 0.145 µg/mL
- IC50 (µg/mL), pseudovirus neutralization [22]: 43.2 µg/mL
- IC50 (µg/mL), pseudovirus neutralization [23]: 0.309 µg/mL
- IC50 (µg/mL), pseudovirus neutralization [24]: 0.201 µg/mL
- IC50 (µg/mL), pseudovirus neutralization [25]: 0.194 µg/mL
- IC50, pseudovirus neutralization [26]: 0.175 µg/mL
- IC50 (µg/mL), pseudovirus neutralization [27]: 0.088 µg/mL
- IC50, pseudovirus neutralization [28]: 0.14 µg/mL
- IC50, pseudovirus neutralization [29]: 0.033 µg/mL
- IC50 (µg/mL), pseudovirus neutralization [30]: 0.142 µg/mL
- IC50 (µg/mL), pseudovirus neutralization [31]: 0.129 µg/mL
- IC50 (µg/mL), pseudovirus neutralization [32]: 0.58 µg/mL
- IC50 (µg/mL), pseudovirus neutralization [33]: 2.76 µg/mL
- IC50 (µg/mL), pseudovirus neutralization [34]: 0.047 µg/mL
- IC50, pseudovirus neutralization [35]: 0.54 µg/mL
- IC50 (µg/mL), pseudovirus neutralization [36]: 3.56 µg/mL
- IC50 (µg/mL), pseudovirus neutralization [37]: 0.084 µg/mL
- IC50 (µg/mL), pseudovirus neutralization [38]: 1.76 µg/mL
- IC50 (µg/mL), pseudovirus neutralization [39]: 0.166 µg/mL
